Results on one substance are retold here after patent US20100266530A1.

This assay has as its target N-terminal GFP-tagged tail-less hFcRn (ssECTM: signal sequence-GFP-ectodomain-transmembrane domain) stably expressed on HEK293 cells (human) [GFP: P42212]. The assay can be described thus: flow cytometry on ssECTM cells at pH 7.5, 50 ug/ml hIgG-AF647, no competitor.

Regarding human IgG (hIgG) (antibody), the MFI stood at 6 MFI.
